The values that follow come from patent publication US20220332804A1 (CSL INNOVATION, published 2022).

Common to all, as to assay: SPR, KD relative to WT C2;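 also: biacore SPR at 37 °C, anti-C2 mAbs captured via immobilised goat anti-human IgG, C2 alanine or serine surface mutants as analytes, 1:1 model fitted, double-referenced sensograms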
On the technique in general: Surface plasmon resonance follows binding to a sensor surface in real time, without labels.

In one experiment the target is T1, human C2 P704A (human, UniProt P06681 21-752).
T1 sequence: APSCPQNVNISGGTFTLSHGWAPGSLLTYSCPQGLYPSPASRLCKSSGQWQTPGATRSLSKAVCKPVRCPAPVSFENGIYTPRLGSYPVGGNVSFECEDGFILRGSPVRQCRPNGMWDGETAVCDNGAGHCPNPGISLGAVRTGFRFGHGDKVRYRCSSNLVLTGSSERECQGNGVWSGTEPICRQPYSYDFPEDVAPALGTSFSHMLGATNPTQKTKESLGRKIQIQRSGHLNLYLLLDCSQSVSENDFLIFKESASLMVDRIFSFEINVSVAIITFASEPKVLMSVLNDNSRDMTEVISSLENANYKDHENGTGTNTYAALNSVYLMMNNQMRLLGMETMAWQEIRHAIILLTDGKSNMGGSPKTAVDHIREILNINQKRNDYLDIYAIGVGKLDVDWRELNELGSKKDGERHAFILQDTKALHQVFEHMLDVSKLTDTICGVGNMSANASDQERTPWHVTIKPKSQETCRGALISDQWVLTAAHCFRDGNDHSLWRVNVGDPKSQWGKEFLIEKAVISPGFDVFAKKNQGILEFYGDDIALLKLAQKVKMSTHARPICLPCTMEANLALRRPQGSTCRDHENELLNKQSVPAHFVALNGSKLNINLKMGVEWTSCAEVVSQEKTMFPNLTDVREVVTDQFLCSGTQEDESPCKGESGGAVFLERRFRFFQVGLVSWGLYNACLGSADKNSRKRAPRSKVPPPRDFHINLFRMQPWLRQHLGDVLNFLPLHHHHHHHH

Another experiment deals with T2, human C2 W420A (human, UniProt P06681 21-752).
T2 sequence: T1 sequence with W400A, A684P

The target of a further experiment is T3, human C2 L271A (human, UniProt P06681 21-752).
T3 sequence: T1 sequence with L251A, A684P

A further experiment addresses T4, human C2 L439A (human, UniProt P06681 21-752).
T4 sequence: T1 sequence with L419A, A684P

Residue numbers refer to the chain shown, from its start.

B1: RF16-226 (antibody, human IgG4 S228P, lambda)
heavy: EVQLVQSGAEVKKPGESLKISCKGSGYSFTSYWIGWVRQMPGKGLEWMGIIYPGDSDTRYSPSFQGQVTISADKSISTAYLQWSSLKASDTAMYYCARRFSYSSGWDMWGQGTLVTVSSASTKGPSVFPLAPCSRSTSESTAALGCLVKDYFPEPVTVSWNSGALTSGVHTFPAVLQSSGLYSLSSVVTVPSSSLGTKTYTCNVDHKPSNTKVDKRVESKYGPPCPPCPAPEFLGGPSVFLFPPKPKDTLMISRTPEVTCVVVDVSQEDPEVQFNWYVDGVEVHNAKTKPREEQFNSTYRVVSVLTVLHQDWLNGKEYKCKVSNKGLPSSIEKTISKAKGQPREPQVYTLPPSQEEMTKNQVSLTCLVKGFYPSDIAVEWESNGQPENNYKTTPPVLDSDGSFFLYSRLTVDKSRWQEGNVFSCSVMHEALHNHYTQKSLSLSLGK
light: SYELTQPPSVSVSPGQTARITCSGDALTSKYVAWYQQKSGLAPLLVIYEDTRRPSGIPAKFSGSSSGSVATLTISGAHGDDEADYYCYSTDASGHQRVFGGGTKLTVLSQPKAAPSVTLFPPSSEELQANKATLVCLISDFYPGAVTVAWKADGSPVKAGVETTKPSKQSNNKYAASSYLSLTPEQWKSHRSYSCQVTHEGSTVEKTVAPTECS
notes: pH-dependent anti-C2 antibody from a phage display library; also called WT
Consider B1, for which the Fold diff worked out at 12 fold with human C2 P704A, 2 fold with human C2 W420A, 1 fold with human C2 L271A and 12 fold with human C2 L439A.
